How the values were obtained:
[1] = molecular target: HSV-1 (Herpes Simplex Virus type 1; antigen recognised not identified) (Herpes simplex virus 1); assay: cell-based or functional assay
[2] = molecular target: HSV-2 (Herpes Simplex Virus type 2; antigen recognised not identified) (Herpes simplex virus 2); assay: cell-based or functional assay

IC50 (neutralization, IIF infection foci count, InCellAnalyzer) [1]: 0.7 µg/mL | IC50 (neutralization, IIF infection foci count, InCellAnalyzer) [2]: 0.2 µg/mL
B1: Fab Ex2 (IgG1 Fab format) (Fab, V domains shown)
VH: LESGGGVVQPGRSLRLSCAASGFTFTTFAMHWVRQAPGKGLEWLAFISYDGSNKYYADSVKGRFTISRDNSKNTLYLQMNSLRAEDTSIYYCAREVWNYADYWGQGALVTVSS
VL: ELTQSPGTLSSSPGHRATLSCKASAPLGSNHMAWYQQKPGQAPRLLIYGASTRATGVPARFTGSGSGTDFTLTISSLQPEDFATYYCQQANSFPRTFGQGTKVEIK

Source: patent US20190185546A1
